Consider one substance from publication PMC7501880.

The target of the assay is DIP-α^Nectin1 chimera (human | Drosophila) (UniProt Q15223). The assay is described as follows: SPR. For orientation: SPR reads the build-up and loss of mass on a sensor chip optically.

On to “Dpr10^Nectin3 chimera (from UniProt Q9NQS3 58-167)”, for which the Kd was less than 5 mM.

The Kd is a measure of binding affinity in units of concentration.
